Measurements published in PMC10241049, “Derivation of the small-angle scattering profile of a target biomacromolecule from a profile deteriorated by aggregates. AUC–SAS” (Journal of Applied Crystallography, 2023).

Molecular target: the molecule itself
Assay: AUC + other: small-angle X-ray scattering (AUC-SAS); sedimentation velocity AUC (45 000 r/min, interference optics) and laboratory SAXS, 298 K; 2.0 mg/ml in 100 mM Tris-HCl pH 7.5, 100 mM NaCl; the derived profile of the main component was compared with the structure of the 24-mer and with SEC-SAXS

B1: apoferritin (natural protein)
chain: SSQIRQNYSTEVEAAVNRLVNLYLRASYTYLSLGFYFDRDDVALEGVCHFFRELAEEKREGAERLLKMQNQRGGRALFQDLQKPSQDEWGTTLDAMKAAIVLEKSLNQALLDLHALGSAQADPHLCDFLESHFLDEEVKLIKKMGDHLTNIQRLVGSQAGLGEYLFERLTLKHD
notes: apoferritin; it uses PDB 4v1w as the structure of this protein; PDB 4v1w is horse spleen apoferritin (light chain); also called AF; AF5; source: bought: Merck, Sigma-Aldrich; purified by SEC (Superose 6 Increase 10/300 GL); copies: 24
- stoichiometry N: 24
